Target: T1, PKC-ε (Homo sapiens, UniProt Q02156)
T1 sequence (Q02156 1-737): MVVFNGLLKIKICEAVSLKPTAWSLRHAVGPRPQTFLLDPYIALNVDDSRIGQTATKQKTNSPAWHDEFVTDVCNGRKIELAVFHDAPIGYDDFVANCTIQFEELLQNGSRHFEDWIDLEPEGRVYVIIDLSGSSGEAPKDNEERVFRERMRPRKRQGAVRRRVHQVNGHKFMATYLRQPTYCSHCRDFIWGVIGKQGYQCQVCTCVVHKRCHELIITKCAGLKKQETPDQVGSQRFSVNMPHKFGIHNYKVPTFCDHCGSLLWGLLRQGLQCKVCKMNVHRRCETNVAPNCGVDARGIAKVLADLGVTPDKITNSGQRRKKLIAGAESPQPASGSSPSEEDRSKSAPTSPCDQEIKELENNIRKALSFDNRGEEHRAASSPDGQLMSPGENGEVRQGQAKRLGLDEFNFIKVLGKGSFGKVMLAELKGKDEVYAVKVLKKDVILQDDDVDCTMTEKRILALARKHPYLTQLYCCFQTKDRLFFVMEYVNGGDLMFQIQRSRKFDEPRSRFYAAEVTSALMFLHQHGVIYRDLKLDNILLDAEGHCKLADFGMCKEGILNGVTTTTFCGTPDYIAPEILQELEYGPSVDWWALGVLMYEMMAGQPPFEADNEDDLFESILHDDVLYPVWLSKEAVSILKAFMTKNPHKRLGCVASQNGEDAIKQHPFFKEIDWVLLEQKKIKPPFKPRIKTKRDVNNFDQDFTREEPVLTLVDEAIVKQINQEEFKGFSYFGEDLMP
Experiment: ELISA-based competitive binding assay with purified PKC isoform
Design: key to Affinity for PKC isoform ε: —: no detectable affinity; Low to very low affinity at 10X or 20X or both PRE concentrations in at least one cell line in the cell extract assay; Low affinity in purified isoform assay.; Moderate affinity at 10X or 20X or both PRE concentrations in at least one cell line in the cell extract assay.; High affinity at 10X or 20X or both PRE concentrations in at least one cell line in the cell extract assay; High affinity in purified isoform assay
Conditions: for inhibition at 50 µM / inhibition at 100 µM / inhibition at 200 µM / calculated binding capacity (100-% n) after subtraction of the DMSO apparent binding capacity: purified PKC-ε; for inhibition at 50 µM / inhibition at 100 µM / inhibition at 200 µM: read-out: calculated binding capacity (100-% n) after subtraction of the DMSO apparent binding capacity; for Affinity for PKC isoform ε: Purified isoform, Table 20
Protocol: Peptides PRE 1, 2, 3, 4, 5, 6, 7, 8, 9, 10, 11, 12 and 13 (see Table 3) were tested for their ability to interfere with binding of PKC isoform-specific antibodies to their target PKC isoforms using a competitive binding assay and purified PKC isoforms.
Procedure: Competitive binding was assessed using a 96 well plate ELISA-based assay as described below.
Greiner 96 well ELISA plates were coated with the appropriate PKC isoform diluted in PBSN (PBS with Calcium/Magnesium+0.05% Sodium azide w/w). 50 μL/well at 250 ng/mL was used. Control wells contained PBSN only. Plates were incubated overnight at 4° C.
The plates were washed 3 times with 200 μL of dH2O per well, then 100 μL of blocking solution was added per well and the plate incubated for 1 h at 37° C. The washing steps with dH2O were repeated and 50 μL of the appropriate PRE solution (PRE stock solution [20 mM in DMSO] diluted in PBSN) was added and the plate incubated for 1 h at room temperature.
After incubation, 5 μL of 1.1:400 anti-PKC (isoform specific antibody) was added per well (to provide a final concentration of 1:4000). For PKC-epsilon, 1.1:800 dilution was used and for PKC-zeta a 1.1:100 dilution was used due to high and low binding affinity, respectively. The plates were then incubated 1 h at room temperature, followed by washing with dH2O as described above.
50 μL of 1:1000 dilution of Alkaline Phosphatase (AP) conjugated antibody (anti-rabbit for all except zeta, which was anti-goat) was then added and the plate incubated for 1 h at room temperature. Washing with dH2O was then repeated. Finally, 100 μL of pNPP solution in pNPP buffer (2 mM MgCl2, 100 mM Sodium bicarbonate in water, pH 9.8) was added to all wells and incubated for 8 minutes for α, βI, βII ε, and ζ, or for 15-20 mins for […] (until sufficient coloration is observed). The reaction was stopped by addition of Stop solution (2N NaOH) and the absorbance at 405 nm was read on a Galaxy Plate reader.
Controls were PKC without PRE; blank controls, and controls containing the final concentrations of DMSO used for solubilizing the PREs. The non-specific binding capacity related to DMSO was also measured.
The antibodies used were as follows: anti-PKC α (Cat. No. SC-208); anti-PKC βI (Cat. No. SC-209); anti-PKC βII (Cat. No. SC-210); anti-PKC δ (Cat. No. SC-213); anti-PKC ε (Cat. No. SC-214); anti-PKC ζ (Cat. No. SC-216-G) (all from Santa Cruz Biotechnology, Inc.). The AP-conjugated antibodies were obtained from Jackson Immuno Research Laboratories (West Grove, Pa.).
Calculations: The OD values measured at 405 nm represent the free PKC coated per well.
OD405 PKC alone−Blank OD405 of each sample=OD405 coated isoform
(OD405 of sample X/OD405 coated isoform)×100=% n that represents the percentage of X binding compared to control.
100-% n measures the relative binding capacity of X towards the tested isoform.
The apparent binding capacity of the DMSO samples was then subtracted from X binding capacity.
All measurements were made in triplicate and the values in the table represent the averaged calculated binding capacity values after subtraction of the DMSO apparent binding capacity (averaged from 12 values, respectively 10.80, 11.20 and 16.40 corresponding to the concentrations of DMSO used to dilute the […] at 200, 100 and 50 μM respectively). The results allow for quantitative comparison of the binding capacity of each PRE towards an individual isoform within each table, but not among isoforms due to differences in sensitivity of the specific antibodies toward the secondary antibody. This applies particularly to PKC-delta. As noted above, the colour development duration was increased 2-3 times and, as a result, the OD405 measurements may be overestimated for this isoform.

Ac-AKGIQEVKGGDAQNLIGISI-NH2 [PRE 3]
inhibition at 50 µM (PRE 50 μM): 34%
inhibition at 100 µM (PRE 100 μM): 31.5%
inhibition at 200 µM (PRE 200 μM): 31%
Affinity for PKC isoform ε: H
targeting of PKC-ε (purified isoform, Tables 14-19): targeted most strongly

Ac-AKGIQEVKGGKDAQNLIGISI-NH2 [PRE 5]
inhibition at 50 µM (PRE 50 μM): 0%
inhibition at 100 µM (PRE 100 μM): 0%
inhibition at 200 µM (PRE 200 μM): 1.8%
Affinity for PKC isoform ε: —

Ac-ISIGILNQADK-NH2 [PRE 10]
calculated binding capacity (100-% n) after subtraction of the DMSO apparent binding capacity (PRE 50 μM): 0.91
calculated binding capacity (100-% n) after subtraction of the DMSO apparent binding capacity (PRE 200 μM): 1.75
Affinity for PKC isoform ε: —

Ac-ISIGILQNADK-NH2 [PRE 7]
Affinity for PKC isoform ε: L

Ac-KDANQLIGISI-NH2 [PRE 6]
calculated binding capacity (100-% n) after subtraction of the DMSO apparent binding capacity (PRE 50 μM): 2.61
calculated binding capacity (100-% n) after subtraction of the DMSO apparent binding capacity (PRE 100 μM): 0.46
Affinity for PKC isoform ε: —

Ac-KDAQNLI-NH2 [PRE 12]
Affinity for PKC isoform ε: —

Ac-KDAQNLIGISI-NH2 [PRE 4, Ac-KDAQNLIGISI-NH2]
inhibition at 50 µM (PRE 50 μM): 0%
inhibition at 100 µM (PRE 100 μM): 0%
inhibition at 200 µM (PRE 200 μM): 2.58%
Affinity for PKC isoform ε: —

Ac-RDAQNLI-NH2 [PRE 13]
Affinity for PKC isoform ε: —

Ac-RDAQNLIGISI-NH2 [PRE 11]
Affinity for PKC isoform ε: L

Ac-isigilgnadk-NH2 [PRE 9]
calculated binding capacity (100-% n) after subtraction of the DMSO apparent binding capacity (PRE 50 μM): 16.35
calculated binding capacity (100-% n) after subtraction of the DMSO apparent binding capacity (PRE 100 μM): 8.53
Affinity for PKC isoform ε: L

ILEDKGGDAQNLIGISI [PRE 8]
Affinity for PKC isoform ε: —

RRKKGGKDFVVKR [PRE 1]
calculated binding capacity (100-% n) after subtraction of the DMSO apparent binding capacity (PRE 100 μM): 5.47
calculated binding capacity (100-% n) after subtraction of the DMSO apparent binding capacity (PRE 200 μM): 0.83
Affinity for PKC isoform ε: —
